Six molecules from patent US20150098900A1 (Genentech, published 2015) can be followed below.

Substitutions are numbered along the chain they refer to.

In assay [1] the target is T1, human FcRH5c (full length human FcRH5) (human, UniProt Q96RD9 16-977).
T1 construct: Used on transfected SVT2, 293, EJM and OPM2 cells and endogenously on MOLP-2 cells and CD19+ B cells; also called IRTA2c; huFcRH5
T1 sequence: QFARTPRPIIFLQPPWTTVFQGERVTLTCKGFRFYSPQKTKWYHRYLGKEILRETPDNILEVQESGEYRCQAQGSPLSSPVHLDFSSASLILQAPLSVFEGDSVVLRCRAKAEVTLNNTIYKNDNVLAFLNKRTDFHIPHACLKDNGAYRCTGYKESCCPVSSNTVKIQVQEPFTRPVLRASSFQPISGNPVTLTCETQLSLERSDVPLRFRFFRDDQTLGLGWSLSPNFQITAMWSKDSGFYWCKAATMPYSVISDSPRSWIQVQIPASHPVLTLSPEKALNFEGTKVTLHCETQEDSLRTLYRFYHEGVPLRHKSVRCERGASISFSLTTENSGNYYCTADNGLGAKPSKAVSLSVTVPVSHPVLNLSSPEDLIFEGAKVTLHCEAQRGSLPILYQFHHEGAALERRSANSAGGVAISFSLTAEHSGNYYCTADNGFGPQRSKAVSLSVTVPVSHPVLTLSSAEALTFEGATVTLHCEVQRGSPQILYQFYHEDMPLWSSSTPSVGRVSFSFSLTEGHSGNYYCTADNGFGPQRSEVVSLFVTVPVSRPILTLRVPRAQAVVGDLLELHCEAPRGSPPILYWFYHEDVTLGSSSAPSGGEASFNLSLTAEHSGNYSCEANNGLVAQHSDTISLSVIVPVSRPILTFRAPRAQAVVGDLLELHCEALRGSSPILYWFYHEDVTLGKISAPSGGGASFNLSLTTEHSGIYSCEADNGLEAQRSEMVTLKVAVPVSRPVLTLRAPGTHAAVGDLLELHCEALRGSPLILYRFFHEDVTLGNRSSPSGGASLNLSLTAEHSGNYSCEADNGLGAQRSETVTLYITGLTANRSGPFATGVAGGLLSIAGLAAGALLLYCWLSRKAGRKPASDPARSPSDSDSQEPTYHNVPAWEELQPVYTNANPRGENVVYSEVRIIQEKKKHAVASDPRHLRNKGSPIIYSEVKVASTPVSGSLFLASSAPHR
The assay can be described thus: FACS, EJM cells transfected with human FcRH5, anti-mouse Alexa-647; negative control.

Assay [2] has as its target T1, human FcRH5c (full length human FcRH5). The assay can be described thus: FACS, OPM2 cells transfected with human FcRH5, anti-mouse Alexa-647; negative control.
Assay [3] has the same target. In words: FACS, MOLP2 cells (endogenous FcRH5), 4 ug/ml; legend printed under FIG. 3E. As to the method:
(§1) To test binding to endogenously FcRH5 expressing cancer cells or FcRH5 transfected cancer cells, cells were lifted using EDTA/PBS. 1×10⁵ cells were suspended in 100 ul and incubated […] with primary antibodies (1 volume of non-IgG quantitated subclone supernatant, 4 ug/ml IgG quantified subclone supernatant or […] purified monoclonal antibodies). Cells were washed twice with FACS buffer (PBS 1% BSA 2 mM EDTA) and incubated with 1:1000 dilution of goat anti-mouse secondary labeled with PE or 1:100 of goat anti-mouse APC. Cells were washed twice with FACS buffer and Flow cytometry analysis was done on a FACSCalibur. Direct […] of antibodies was done according to manufacturer's protocol (Invitrogen), when indicated. To analyze binding to NK or B cells, 1 million human PBMC were incubated with 4 ug/ml IgG quantified subclone supernatants for 60 min, washed and incubated with 1:100 dilution of goat anti-mouse secondary labeled with APC. Cells were then washed again twice and stained using anti-CD56 (PE; BD Biosciences #555516) and anti-CD19 (PE; BD Biosciences #340364) prior flow cytometry and analysis of binding to human CD56+ and CD19+ cells.

Assay [4] deals with T2, FcRH3 endogenously expressed on human NK cells (CD56+ cells of PBMC) (human, UniProt Q96P31 18-734).
T2 construct: whole, on cells; FcRH1 was also detected on CD56+ cells; also called endogenously expressed FcRH3
T2 sequence (looked up): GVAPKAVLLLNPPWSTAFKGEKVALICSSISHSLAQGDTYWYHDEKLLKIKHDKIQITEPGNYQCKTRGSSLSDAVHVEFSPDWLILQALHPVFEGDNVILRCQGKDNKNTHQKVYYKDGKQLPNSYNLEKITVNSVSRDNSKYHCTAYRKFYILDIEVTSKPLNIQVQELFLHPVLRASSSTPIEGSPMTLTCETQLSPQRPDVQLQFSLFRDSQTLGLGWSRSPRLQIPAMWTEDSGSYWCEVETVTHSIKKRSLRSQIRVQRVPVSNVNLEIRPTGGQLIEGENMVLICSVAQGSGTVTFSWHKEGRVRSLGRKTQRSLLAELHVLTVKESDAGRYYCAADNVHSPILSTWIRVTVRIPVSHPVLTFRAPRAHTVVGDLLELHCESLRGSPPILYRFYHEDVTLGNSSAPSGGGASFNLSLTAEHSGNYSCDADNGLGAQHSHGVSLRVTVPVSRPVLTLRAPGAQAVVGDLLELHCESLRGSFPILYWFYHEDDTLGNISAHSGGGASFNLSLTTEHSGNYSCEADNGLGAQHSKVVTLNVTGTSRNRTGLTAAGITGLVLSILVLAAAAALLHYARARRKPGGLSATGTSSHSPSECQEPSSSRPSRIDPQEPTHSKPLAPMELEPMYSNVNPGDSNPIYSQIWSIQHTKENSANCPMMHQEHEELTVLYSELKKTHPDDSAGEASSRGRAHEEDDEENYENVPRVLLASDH
The assay can be described thus: FACS, CD56+ NK cells of human PBMC, anti-mouse APC. How it is done: as §1
Since the overall signal in the FcRH3-expressing SVT2 cells was low, further testing was done using PBMCs from healthy donors. […]

Assay [5] addresses T1, human FcRH5c (full length human FcRH5). In words: FACS, APC-labelled antibodies on SVT2 cells with full-length human FcRH5.
The target of assay [6] is T3, soluble FcRH5a isoform with C-terminal HIS-expression tag (human, UniProt Q96RD9-3 16-759).
T3 construct: mature; also called IRTA2a
T3 sequence (looked up): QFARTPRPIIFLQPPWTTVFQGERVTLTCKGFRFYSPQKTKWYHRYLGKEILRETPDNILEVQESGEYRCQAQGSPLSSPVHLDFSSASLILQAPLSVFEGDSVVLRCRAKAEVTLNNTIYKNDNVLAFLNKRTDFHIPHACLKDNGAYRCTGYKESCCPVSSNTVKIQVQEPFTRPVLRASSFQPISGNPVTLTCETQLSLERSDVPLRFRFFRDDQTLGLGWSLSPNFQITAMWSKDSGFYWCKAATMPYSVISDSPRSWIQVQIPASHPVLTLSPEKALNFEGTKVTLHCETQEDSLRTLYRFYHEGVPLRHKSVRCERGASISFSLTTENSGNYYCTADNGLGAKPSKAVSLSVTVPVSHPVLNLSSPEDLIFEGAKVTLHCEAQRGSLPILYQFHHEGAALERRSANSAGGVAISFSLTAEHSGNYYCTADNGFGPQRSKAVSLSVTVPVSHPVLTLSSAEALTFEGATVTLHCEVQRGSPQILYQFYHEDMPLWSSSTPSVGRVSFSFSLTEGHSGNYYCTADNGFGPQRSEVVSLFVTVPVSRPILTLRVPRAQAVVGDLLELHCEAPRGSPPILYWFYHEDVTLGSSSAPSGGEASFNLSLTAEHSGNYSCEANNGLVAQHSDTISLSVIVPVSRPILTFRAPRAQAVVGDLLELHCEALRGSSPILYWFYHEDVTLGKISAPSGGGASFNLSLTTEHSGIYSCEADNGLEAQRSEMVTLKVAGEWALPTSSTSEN
In words: ELISA, His-tagged soluble FcRH5a captured by anti-His, anti-mouse HRP, OD 650. As to the method:
For this, 293 cells were transfected to express the soluble isoform with C-terminal HIS-expression tag. Expression of FcRH5a protein was confirmed with Western blot analysis using anti-HIS antibody. A 65 kD band was detected in conditioned media from FcRH5a but not vector transfected cells (not shown). For the ELISA, plates were coated with anti-HIS capture antibody and incubated 1 hour with 1:10 diluted conditioned media including the HIS-tagged soluble FcRH5a isoform. The E11 monoclonal antibodies were used for detection in 1-0.001 ug/ml concentration, incubated for 1 hour followed by incubation with goat anti-mouse HRP antibody and finally with TMB-substrate.

Assay [7] addresses T1, human FcRH5c (full length human FcRH5). In words: FACS, 293 cells with wild type FcRH5c, supernatants 2.5 ug/ml, anti-mouse PE. As to the method: Two separate tests were designed to address dependency of binding on the presence of membrane proximal Ig-domain 9 (E11). First a truncated human FcRH5c mutant was generated that lacks Ig-domains 6-9 (amino acids 464-850 of SEQ ID NO:1) including the expected binding site for the antibodies derived from E11 immunization. This construct with N-terminal gD-tag was expressed in 293 cells and subjected to 2.5 ug/ml subclone supernatants followed by PE labeled goat anti-mouse secondary antibody (1:1000 dilution). None of the tested subclones bound to 293 cells that express the truncated human FcRH5c (FIG. 4A). In contrast binding was detected to 293 cells that express wild type human FcRH5c. Binding of gD or non-isoform selective antibody clone (10A8) was not altered by the mutation.

For assay [8] the target is unchanged. The assay can be described thus: FACS, MOLP2 cells (endogenous FcRH5), 4 ug/ml. As to the method: as §1

For mIgG (antibody), the results for the Mean:FL4-H in assay [1] and in assay [2] were 10.3 and 6.43, respectively.

B1: 5F1.1.5 (antibody, IgG2a, V domains shown)
VH: QVQLQQSGADLVRPGTSVKVSCKASGYAFTNYLIEWVKQRPGQGLEWIGVINPGSGGTNYNEKFKGKATLTADKSSSTAYMQLSSLTSDDSAVYFCARTRNYGYVIDYWGQGTTLTVSSASTKGPSVFPLAP
VL: QAVVTQESALTTSPGETVTLTCRSSTGTVTTSNFANWVQEKPDHLFTGLIGGTSNRAPGVPARFSGSLIGDKAALTITGAQTEDEAIYFCVLWCSNLWVFGGGTKLTVLGQPKAA
notes: parent 5F1 and subclone 5F1.1 treated as the same antibody; also called 5F1.1.mIgG2a
In the case of B1, in assay [3], the binding result is reported as “binds”.

B2: 1G7.2 (antibody, IgG1, V domains shown)
VH: EVQLQESGPGLVQPSQSLSITCTVSGFSLTRFGVHWVRQSPGKGLEWLGVIWRGGSTDYNAAFMSRLTITKDNSKSQVFFKLNSLKVDDTAIYYCSNHYYGSSDYALDNWGQGTSVTVSSASTKGPSVFPLAP
VL: DIVMTQSHKIMSTSVGDRVSITCKASQDVSNIVVWFQQKPGQSPNLLIYSASYRYTGVPDRFTGSGSGTDFTFTISSVQAEDLAVYYCQQHYSSPYTFGGGTKLEIKRTVAA
notes: Parent 1G7, subclone 1G7.2 and purified 1G7.2.mIgG1 treated as one antibody; also called 1G7.2.mIgG1
B2: the binding result was “no binding (tested: 4 ug/ml)” in assay [4], “binds” in assay [5] and “no binding” in assay [6].

B3: 2H7.3 (antibody, IgG2b, V domains shown)
VH: EVQLQQSGPELWKPGASVKMSCKASGYTFTDYYMKWVKQTHGKSLEWIGDINPNNGETFYSQKFKGKATLTVDKSSTTAYMQLNSLTSEDSAVYYCARGLYRFDYWGQGTTLTVSSASTKGPSVFPLAP
VL: EIVLTQSPATLSVTPGDSVSLSCRASQNIRNNLHWYQQKSHESPRLLIKFTSQSISGIPSRFTGSGSGTDFTLSINSVETEDFGMYFCQQSNNWPQYTFGGGTKLEIKRTVAA
notes: Parent 2H7, subclone 2H7.3 and purified antibody treated as one; also called 2H7.3.mIgG2b
For the molecule B3, the binding result in assay [7] and in assay [6] was “binds” throughout.

B4: 5A10.1.3 (antibody, IgG2b, V domains shown)
VH: EVQLQQSGPELWKPGASVKMSCKASGYTFTDYYMKWVKQSHGKSLEWIGDINPNNGETFYNQKFKGKATLTVDKSTSTAYMELNSLTTEDSAVYYCARGLYRFDYWGQGTTLTVSSAASTKGPSVFPLAP
VL: B3 VL with E1D, T10N, T14I, H41Q, T51A, I55M, I58T, S74T, S77T
notes: parent 5A10 and subclone 5A10.1 treated as the same antibody; also called 5A10.1.mIgG2b
In the case of B4, the concentration for a half-maximal effect (EC50 (read off the curve)) in assay [6] is roughly 0.02 ng/mL.

B5: 3G7.1.5 (antibody, IgG2a, V domains shown)
VH: EVQLQQSGPELVKPGASVKMSCKASGYTFTDYYMKWVRQNHGKRLEWIGDINPYNGDTFYNQKFKDKATLTVDKSSSTAYMQFNSLTSEDSAVYYCARGLYFFHYWGQGTTLTVSSASTKGPSVFPLAP
VL: DIVLIQSPATLSVTLGGSVSLSCRASQSISNNLHWYQQKSHESPRLLIKFASQSISGIPSRFRGSGSGTDFTLTINSVETEDFGIYFCQQSNNWPQYTFGGGTKLELKRTVAA
notes: parent 3G7 and subclone 3G7.1 treated as the same antibody; also called 3G7.1.mIgG2a
With B5, in assay [8], the binding result was “binds”.
